Assay results reported in a protein production outcome set (Wang et al. 2014).

Test: label from the status in PepcDB records

Row | Sequence | protein production
1 | MERFNMKLTRKKFTGNLLRSLAVLLLFSLVVCTAAGEELYFEPQEAVFSDTGSVASLSLYLDQAPSGLAGYKLNLSISDPSVAQITGVEFPSWSGINNSSSLPADLVQIKAVDLEEKINAGDLDVFLGTVTVESLASGEANLTVSVDRLDDDSENTISVTVREAKLTSGTTSENPVVSILPAESTLSSGASQVFEIRADKFTEGISGYDFNLTLENPAVGKFTNVEYPSWVGLSENSSMPNTSIKVKAVDTNDVVKAGDENVLLANVTFVAETPGESEISLTFNRLDDDSGSNINAVAEASSVKVQGSSTLPVAKFTATPTSGDSPLTVQFTDESTGSPTAWTWDFGDGATATEQSPSHTYTSAGNYTVNLTVTNDGGSDSEVKTDYITVSESSTPTEPEPVAAFTADVTNGTVPLTVNFTDQSTEAPTSWAWDFDNDGTVDSTEQNPSYTYTSAGTYTVNLTVANAEGSDSEVKIDYITVSESSTPTEPEPVAAFIADVTNGTVPLTVNFTDQSTGSPTSWLWDFGDNTSATEQNPSHTYNSAGNYTVNLTVISESGNSSEVKADYITVSESSTPTEPEPVAAFTADVTNGTVPLTVNFTDQSTGMPTSWAWDFDNDGNMDSTEQNPSYTYTAEGNYTVNLTVSSEVGSDSEVKVEYITVTDSSTTPEARPDLIVSSIIPPSSITANTSCNIGATISNTGESDAGTFNATLSVNGAVVDTHAVSGIVSGSSATVNFSWKPVAAGYYSVKVSADAGNVIAESDETNNELADCIKVEEASSGSQSQNGSSSVSLNVTIVPVVCFEVSPSALKFGELSAGQTSEPQLLTLKNCGVSGIKVTAEVSDSSAEDNLFGLGLLLDSQIWSDYCNVIGSNSQENATAALHVPSDYTGTGNKKGTITFWAEVAE | failed
2 | MDINYERPDPYYLLNKIDKEEKNKNRGKLKIFFGYAAGVGKTYAMLRAAHYMKELGKDIVIGYIEPHARMDTMSLTKGLPQIPVKNIDYKGVILREFDVDKALLRKPEIILVDELAHTNAKSQRNKKRWKDIEELLDAGIDVYTTLNVQHIESLNDIVANITHVSVRETIPDKVFDDADKVELIDIEPDELLKRFTDGKIYRKEQVKRAFNNFFTKNNLYALREIALRRTADRVNFEIEIARLSKGQITVMATSDQILACIGTSPSSARIIRTAARMAESYHSKWIALYVDTGRSLGKADKETLNANFNLVELLGGELVTVHGENVADQIIRYAELRNTTKIVIGKNHKRTGTLLHFYAKDVVDKLMDSNSYIDVYMIPNSSYYRDHKNSILSKISIQHKGSVKDVLKAIIIMAITTDIAELFSYMGFKDVNVIMIFILGVIIVYMATKGQIMGIISSIAAVLVFNYRFTEPKNSFIVYDKSYLVTFPIMMIVAFIIGSLTNKVQKEAQDSNMREKRTQTLYIVSGKLLSAVGTSEVVSIGIKYISRLVNRNVICYLADTSNKLSTPFVYKKDKGAKEEIIMSKDENAAAYWTFLNGKESGCGTSTFYRAKGYYIPIKIKNKVLGVIGVSCPSGPLRPQKKAVVDTVTGQIAIALDREILSKEQEKSKVEIERERLRSNLLRSISHDLRSPLAGIKGAASTILENGELIDEKRKQELINGIYEDTEWLIRLIENLLSMTKFDEGNTKIKKDVELVEEVVSEAVQRSSKYFKNHKIKVSVPEDVIMVSMDGSLIEQVIINLLDNASKFSPKGSTIEIKVYEKKKDVVFEIIDEGQGISEDILPNIFDRFFTNGSKISDSRRGVGLGLAICKSIVEAHGGKIEAVNKGSGGAIFKFNIPKEL | failed
3 | MKKMKTLTLFLSLLFSFPFVLSAQMVGETLQKVSAALDNRQWDQAVTLFRQAVNTNVEKAEMFYWTGVDKSLEVSSRIGRELAAYYKKSRSYDKAYLFYKELLQKSPNDVNCLVSCAEMEVCRGRESEALETYRKVLSLDADNLAANIFIGNYLYLKAEREKKQLEADYKKISAPTRMQYARYRDGLSRVMSTGYGKAREYLQKVISQFPSTEAQKTLERIKLIEKEVNR | failed
4 | MNHSFRTGITGRRFSAMRVPYGRSRRTHRNGGAGREGTTMTTTTTPTTTTPTSPPTVKAPTVKAPTAKTATAKTADNPVLRVAPASPAAAAAYFGASLAFHADVSDVATALAAGGDPGFVVLDSRSTASWDQGHVPGAVHLPTALIPEQAEQLLDRSVPVVTYCWGPGCNGATRAALALAELGFQVKEMLGGFEYWVREGFEYETWEGRDHRVADPLTAPVDADDCGC | failed
5 | TNHKGEKINVAVKTCKKDCTLDNKEKFMSEAVIMKNLDHPHIVKLIGIIEEEPTWIIMELYPYGELGHYLERNKNSLKVLTLVLYSLQICKAMAYLESINCVHRDIAVRNILVASPECVKLGDFGLSRYIEDEDYYKASVTRLPIKWMSPESINFRRFTTASDVWMFAVCMWEILSFGKQPFFWLENKDVIGVLEKGDRLPKPDLCPPVLYTLMTRCWDYDPSDRPRFTELVCSLSDVYQMEKDIAMEQERNARYRTPKILEPTAFQE | failed
6 | MNSPETTWTEENSSCALHLHWYALCERKDLVANSGVVAWLDGKQLALFYLPDTAQGEQLFAIDNRDPKSGANVIGRGLTGQIAGELVIASPLYKQHFRLHDGSCIEYPEQRLEVWPVRLNGERVEIAV | failed
7 | MIQAFLEKLPHLDVYGNPQYFFYLILAVLPIYIGLFFKKRFALYEIIFSLSFIVMMLTGSTFNQLKSLLAYVVGQSLLVFIYKAYRKRFNHTLVFYVTVCLSIFPLFLVKLIPAISEDGHQSLFGFLGISYLTFRAVAMIIEMRDGVLKEFTLWEFLRFLLFFPTFSSGPIDRFKRFNEDYINIPDRNELLDMLGQAIHYLMLGFLYKFILAYIFGSLIMPPLKELALEQGGVFNWPTLGVMYAFGFDLFFDFAGYTMFALAISNLMGIKSPINFDKPFKSRDLKEFWNRWHMSLSFWFRDFVFMRLVKLLVKNKVFKNRNVTSSVAYIINMLLMGFWHGLTWYYIAYGLFHGIGLVINDAWVRKKKNINKERRLAKKPLLPENKWTYALGVFITFNVVMFSFLIFSGFLDLLWFPQPHNK | failed
8 | MPNAIFFYRIQRWLYLHHIPFLPKLIQLLIFLIYNTKITADSKIGKGSYFVCKGISTVLIPGTEIGENCVLGLRFSTVRKFPYKNVPKIGNNVFIGPNVVICGPVEIGDNCIVAANSFVDKSLRGG | failed
9 | MLTTQITQTYHLTTPIISAGMAFVATPKLAAAVSNAGGMGTFSAFMSPPEELRALIRQTRSLSDRPFGIDFITAAANDDHIAICMAERVPVVIFFWSFPPLDWVTQLQNAGVKVWMQVGSLAEATQAKAQGFDAIIAQGQEGGGHNRSEASIFSLLPAICREVAPIPVIAAGGIIDGRGLVAALALGAEAVWCGTRFLASEEAYAHPEYKARVVTATVGDTTRTTLFGPEMPGQLMRVLRNLAVNQWGDRVADATKHGPTQPAIGSTILGGQALPMPKFSAILPTPDTSGDFEEMCLTAGESSGNITAIKSARDILWEMENEALDLLTYRLQAITKEQNLMAAG | failed
10 | MLDFYALEDLLTPEEKEVQKAARRFLEKEALPHIRDWWEEGVFPTHLIPRFAELGFLGPTLPPEYGGAGVSSAAYGLICYELERVDSGLRSFVSVQSSLVMYPIYAYGSEEQKREFLPKLARGEMVGCFGLTEPDGGSDPYGNMKTRARREGDTWVLNGTKMWITNGNLAHLAVIWAKDEGGEVLGFLVPTDTPGFQAREVKRKMSLRASVTSELVLEEVRVPESLRLPKALGLKAPLSCLTQARFGIAWGAMGALEAVYEEAVAFAKSRSTFGEPLAKKQLVQAKLAEMLAWHTEGLLLAWRLARLKDEGKLTPAQVSLAKRQNVWKALQAARMARDILGGSGITLEYHAIRHMLNLETVYTYEGTHDVHTLVLGREITGLNAF | not failed
11 | MDLKESQEFSGLIAGKPRISYQNDYGGHRTNLHLLDSRLWIILSGQAAILGFCGNTVLAEDESMKSKSGDNMDESGNTGLEKIEDGSVVSNIHTSKWRVFTDSGRDYFFQGKLEPAERLFGSAIQEAKEGFGEKDPHVASACNNLAELYRVKKEFDKAEPLYLEAVSILEEFYGPDDVRVGATLHNLGQLYLVQRKLEEARACYEIRRCVFAVISYVKNYDELES | failed
